The values below are quoted from earlier work in paper PMC3176300.

Data set [1] addresses Sortilin (Homo sapiens) (UniProt Q99523).
Data set [2] concerns the target Megalin (UniProt P98164).
Data set [3] addresses α-Galactosidase A (Homo sapiens) (UniProt P06280). Put plainly: SPR.
UniProt P06280, sequence (P06280 32-429): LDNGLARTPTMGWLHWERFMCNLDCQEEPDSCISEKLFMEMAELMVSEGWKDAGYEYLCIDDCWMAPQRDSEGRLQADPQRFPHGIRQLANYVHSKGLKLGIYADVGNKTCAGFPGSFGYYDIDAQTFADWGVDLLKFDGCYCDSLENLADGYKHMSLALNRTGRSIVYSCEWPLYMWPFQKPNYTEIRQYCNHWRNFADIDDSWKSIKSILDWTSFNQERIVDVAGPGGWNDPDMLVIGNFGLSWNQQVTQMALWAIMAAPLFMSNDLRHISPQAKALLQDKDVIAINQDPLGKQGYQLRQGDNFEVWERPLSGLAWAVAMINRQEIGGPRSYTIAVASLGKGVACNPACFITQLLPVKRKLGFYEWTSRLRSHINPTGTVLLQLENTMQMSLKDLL

UniProt Q99523, sequence (Q99523 78-755): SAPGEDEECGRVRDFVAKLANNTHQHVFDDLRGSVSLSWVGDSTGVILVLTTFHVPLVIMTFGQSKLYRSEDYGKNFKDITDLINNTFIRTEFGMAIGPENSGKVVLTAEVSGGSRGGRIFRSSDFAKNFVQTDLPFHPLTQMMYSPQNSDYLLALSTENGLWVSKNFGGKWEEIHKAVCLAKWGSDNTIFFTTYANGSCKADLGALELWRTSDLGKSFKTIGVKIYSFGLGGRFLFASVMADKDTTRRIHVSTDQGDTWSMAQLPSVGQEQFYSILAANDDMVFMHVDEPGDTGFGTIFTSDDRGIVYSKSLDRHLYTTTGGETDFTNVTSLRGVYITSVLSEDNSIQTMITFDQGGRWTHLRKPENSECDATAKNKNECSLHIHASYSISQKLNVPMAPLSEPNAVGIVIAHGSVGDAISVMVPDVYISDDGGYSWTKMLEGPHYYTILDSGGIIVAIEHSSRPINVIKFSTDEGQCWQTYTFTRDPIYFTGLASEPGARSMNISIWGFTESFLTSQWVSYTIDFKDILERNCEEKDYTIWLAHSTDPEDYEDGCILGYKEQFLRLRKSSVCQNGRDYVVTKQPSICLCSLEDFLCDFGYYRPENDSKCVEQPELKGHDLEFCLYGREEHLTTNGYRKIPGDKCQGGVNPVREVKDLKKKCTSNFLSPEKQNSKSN

RAP (from UniProt P30533): the results for the Kd in data set [1] and in data set [2] were 78 nM and 8 nM, respectively.

Turning to Megalin (from UniProt P98164), the Kd in data set [3] was 600 nM.
